Data on 47 sequences can be found in the NTF2 design screens of Basanta et al. (2020).

A short description of the data set: protease stability score; higher = more stable; yeast display proteolysis, trypsin and chymotrypsin.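 Further: relative to predicted unfolded state with 0 unfolded-like and 1 meaning tenfold more protease.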
For “DEHERLAEIALRLYVHDIRTGDEHRLRKLFDPHVRFVIGDKVYHGWEEMKWILEHIRRELGVKHIKDEDSRHVHLQGDKMYTELRLHVNQGDYETELEVFMVSVKVNGQWLTHSFELR”, the protease stability score stood at 1.21.

With “DEHERLLIKIARIITNLLLTGDEDIMEELADPNVRFELDFNGVDIHLIGMDFWRHNLEHWWVDHFRLEDVKIQGDYAHLKLNVHMEINGRRHETHTRLSIVVVNGKLKSMRFHLI”, the protease stability score amounted to 1.2.

Sequence “DEHETDKQLAIDLLIEVIQTGDEHTTRRLADPNVKVVIDGREFHGRDFLARMIHEMRFHRIHVEEVRVIDGVVHSNLRVRGEYNGKHVDTRSSIHIKKVNGRWVIESVLIE” registered a protease stability score of 2.04.

“DEHHEEIHRLVEIFLHLELTGDEDTWRELADPTAQIHIDGRDIHGMEDVLRVWEQFKKEMGIDHIRVKDYKVQGNFMHINTELEFNGRRVDSRIEIYIYDGRIKSVIIRYR” returned a protease stability score of 2.25. As for “DEHHEFSRTATEMWIHFMETGDEHDLRNLIDPNVKTKVGDKHHHGREFLVKWLLTFMERADHVEIRLNDIKLQGDKIHIEGRLIIIVGDKEIHIHVERDIIKVNGRWVVHSVIFR”, the protease stability score was 1.21.

As for “DEHHEILDHFLHLWIEALHTGDWKLIEKLIDPHAKLRIHQGDKHIEIHGREEVVRREEEWLRRIKNLRLHIDRIEIQGNKFHMEITLHFDGVTVDSRVILFVYDGQIKHIEIRHN”, the protease stability score came out at 2.43. Turning to “DEHHEILREASELFIKAWLTGDEDTMQEMMDPHTRVVFNGRTHHGWTFASEILERIKNIRIQIDDVRHQGEYVEIHFKLHIDGVRWNTKIHLHVIDGKLKRIQHTTE”, the protease stability score came to 1.01.

Sequence “DEHHEIVRSMSELLTHLHLTGDEEKLSRMADPRVRLDVNGQWFHGREQWEKAFEDFEREMGAKHVKVDHVHVQGNKIILHFHVNVDGVHITVEFDIIIVDGRLKREHIRLK” came in with a protease stability score of 0.621. For “DEHHERARKVAHLFMRIFETGDEDSMNELLDPNVRWVLIYGDKRFELHGWEELDKDIRRYDHHRLEMKHVEIQGNKADNDTRLRLRFDGKDIETETRLHIRVVDGVMKEVTFDIH”, the protease stability score was 0.364. For “DEHHETLKRMTDQTLHVIHTGDEETWNQLADPNTLIRIIFENREINIHGWHLVVRWLQHLHRELRIEIDIRDIEIQGNKVHVEGELHVHQGEKEINIRIIFHFIVVNGRLRDVTIDFR”, the protease stability score amounted to 1.3. For “DEHHEVAHRISTMLTHILMTGNEEWLSHLADPRVRSEIGDFEIHGREHMEELLHRILNKLGADHLRIHHIEIRIQGDFLIVKVHGRTHIGDKTVTHEIIFIIIKINGRWHLHSIWFDFE”, the protease stability score was found to be 1. Turning to “DEHHEVSEKVAKLFLEIWETGDWKTLKRLADPRVRTHIIIGDKTINEHGRENYIRSTVEFLERFPNMRYEIREVRVIGDKIETQGEMNVNGKTFDVIIELIIIDGRIKEVRVENR”, the protease stability score was 1.08. Regarding “DEHHKHLHHLAEHTLRLIATGDEDRFSDLADPHTRLRVNGVDVIGRELVIELWKRMLEQIRITDVHVKRSVVIDGVVHQDTELHSTVGDKRFELKTKSHIFIINGRIHMVEIQHE”, the protease stability score was -0.28. In turn, “DEHHKHVKEMLDLWRRNMETGDWDEIHKLADPHVRMIIFVGDKEIHSHGREEVHRVLEEWIRRMGVDHLVLHDVTLQGNKIIIDTQRNFDGRYLDTSEIIIVVNGRIKEVTFEEK” came in with a protease stability score of 0.341. For the sequence “DEHHKILTELMRDALRYEETGDWDETSKLLDPRTRLDFNGVEVIGREAYEHLLRFLGIKVFRETDMEVQGDKIKLNGRSNFNGRETEHYIYALKVDGRWILRSVEFK”, the protease stability score was 1.3. “DEHHRLARDFWKMLADILKTGDEEIFRDLADPDTRMIQGDKLYHGRELISRELVRQVKEWRLHDFELHHIDEVNGRLLVDSRLVGHFDGRHYLMHVRIFMHKVDGRWVLHEMHYE” returned a protease stability score of 1.38. Sequence “DEHHRWLEQALHLWIHTILTGDEKVLHELFDPDVRLNVDGQDFHGRELMIKWFHDILRKFKNIRIKHIHIEDRRYYDGRLEIHTSVNVEFNGRPHEEKYRIIAFKIDGRWRLKEEEFH” came in with a protease stability score of 1.8. Take “DEHKDLAHKAITNFIEWTETGDFEMFLKLFDPNMRLRVDGQHHHGWHDVFRVFREMGYEIKSVKMDDVEIQGEKITVDLRVHVDINGQHEDIKTRYFFSKYDGKWIIEQIQVV”: the protease stability score is -0.276. “DEHKEEFREWVERLEHVLKTGNEDELHELADPDVKVRIGDKEIHGMHEVLRFILEFYKKLGIDHRHLRIDDYRVQGDFLHIDGHLELTFNGRKHTHQLHIVVLKVNGRWILKEIRVS” came in with a protease stability score of 2.25. Under “DEHKEEIKKFIEEWERSMITGDEDRLWELADPNTRLRQGEFEIHGMEILIEAEHRIVEKYKGLTIESIEMKHIDIINGVVVLYSKIRVRQGDKETEIFIIIYIIKINGQWRLHSLEIR” stands 1.34. On to “DEHKEILREYAKKFLNDVMTGDEDEIEHLADPHARVEIGDKDIHGWEQWIKHLSRTWKELRIEDYRIRSIELVNGVVHLDTHLHIRIGDKRFDTQVEIHLVVINGKVKSVRVDIR”, for which the protease stability score came out at 1.12. For “DEHKELHERLLKMWLSIWETGDEERLRRNADPDTRFKHDFNGREETVVGRENVAKVLEDLRRELGIDHVHIRHFDVQGNYVDLTTELHFNGRIVNFHIIIRVVNGKLKEIHFELR”, the protease stability score was determined as 1.26. Sequence “DEHKEQLRRIFELMLHLFLTGDWKQLWELADPHARFRIDGRDIHGRDNFAEEVKRIVDEWRIHIDPRHIDVFDGVNHVRTDLFFEYDGRKLRHHTRVINIVVDGRLKEVEFRIE” registered a protease stability score of 1.36. “DEHKESLKRAFELWVETVKTGDEQRTEELIDPHVRVVIGDKEIHGMKETSRHILEMRVKSFRLRHYHFVNGRVNILGEIDGEFDGRRRDVDITIHIQKFNGRWLIDELHFG” yielded a protease stability score of 2.27. Take “DEHKHIAEEIARIVLENWMTGNEEIFKKMADPHVRVHINGKKSHGRDHYHELWRLLFEHIRIEHLHIRHMDKQGDFVRVEVEVTGHIDGRRETVESEFRIRTVNGVLRDVEIHFH”: the protease stability score was 1.2. For the sequence “DEHKKESKETAEIVMELRKTGDWDEFSRLADPNVKIDVDVNGKRINNIGWESFVEFVLKERDEWRLEDYKIRDIRVIDGVAEIDGEITGVFNGQREKREFRIIVVVVNGRLKSVQLKFK”, the protease stability score was 1.29. Consider “DEHKREMRILLQLWREFWLTGDWRNILKNADPDYRLTVNGRDFVGMELATEFLEIILRHLRVKHIILRHEELVDGVLHVEGEIDGNIDGKETIHENEINMFVYNGKIHEVELHLK”, for which the protease stability score came to 1.36. In the case of “DEHLEYVREIARLFWQLLSTGDEENLRKLFDPNARLDVNGQEFHGREEIIIFLRHWRMRSKDIRIHHVNVQGEKMEVDIHTDLEFEVGDFKYEEHTRVEIIVEKINGRWLVRHVKIR”, the protease stability score was found to be 0.437.

Sequence “DEHNKLAILIVEILWHLWETGNEEELVKLADPNYKHDVNGKISVGREEFEKTTHYLLNHLRFKHRHVRDEKVQGNKFHVDGQLNIDVNGREVRFDLRVVYIIVNGRLRSEHIDIV” had a protease stability score of 1.71.

The sequence “DEHQEEIKEMFRRMIHALETGDEDFFNHLADPHVLFHEHFNGRSFELHGREEFSKWLQSHREEIRLRNVHYHDIRIYNGVVHFDGRIVWHQGDKTIDRKVHWRTFVIDGRAKKVEIHVK” displayed a protease stability score of 0.621. Sequence “DEHQERIEEVLRDILEVLETGDWRKWHRLMDPHVLLIIFINGRKLSFHGMETVISHLQHEWRRVKGLQFELKHVELQGDYIHIDGHVRFNGQQTRIEIRIDIVDGKIHQLEFKFD” had a protease stability score of 1.53. Take “DEHQERNRRALEEMNRILDTGDWEELTELADPHVRIHYGEFNLHGREDAHRFWKHIVERFKGIRVNIHDVKMVGNYVDVDGHLEIGDKEHKVRIIAFKINGRWLLHSMHFV”: the protease stability score is 1.38. As to “DEHQKEIKEVVEMMRHAILTGDEETLERQMDPHAKIRINGVDYVGRRYLEILIRRVDHRRIHTRIRHVEIVDGRVITHLEERTVLHVGDKDIHVSHELEFVLLKIDGRWLVTEMIIQ”, the protease stability score turned out to be 1.23. The sequence “DEHQRMLELFMRLLMHSQETGDEKTLRELADPNARIHVGDKDYVGREHAAKLLVEWRIHDLELRTVDVQGDKIQWEGELEGEYNGKQDRYETYIIVTKIDGRWLEERVIFK” showed a protease stability score of 1.3. In the case of “DEHREFAKHVLEALVRALETGDEDTIRELFDPNYRIEIGDKTVIGRKYWELFIRRVDHIEVHIIIRDFDVQGNKVIIRGDSHIHLNYDGRTLDIQHHVNFVIRKVDGKWVFHSEHFI” it was 1.79. For the sequence “DEHREIARRHTEVWWKLLLTGDEHLLRELADPHVRLETEHEEVHGREEVVRFLTEEIMKVKNIRLELKRIEVQGDKIDVEGTRHIDGVTIRVILYIHKINGRWVVQQIQLD”, the protease stability score was determined as 1.29. Under “DEHRELEERMHELIQKANETGDWERWMELADPHTRLIVGDKEFHGMERSYEHILELFRRLGVERVEVRIERRDEQGEKINLDVIIIIGDKTIRLILIIYKVDGRWLLRSVEIR” stands 1.63. In the case of “DEHRELIKEMLERFERSLRTGDEHIQTEMMDPDAKIDINGVELHGRDWASRYIQKYKNVRIEVRTITIQGDKVDIHSTIIIGDKHHSMIIHARKVDGKWVLEEMWVE” it was 0.613; in that of “DEHRESLETALEIEIETMLTGDEDSFKRLADPHYRLDVNGVKYHGREAVRVYLEQFDYVEHIVSKDVLVQGDKVRWDVQLDGKYNGQRRRVRVDIISRKINGRWILEEIRIK”, 0.748. In the case of “DEHRKHAEDIFRLWLKAVKTGDEEHILDLMDPHVRLIILVGDKEIHLHGREEMKKENERLRHEWGVDRIRLEITRLDVQGDKIHSDGIDIFNGRNFRVKHHMKVVNGRVEEIKIEFE” it was 0.462; in that of “DEHRKLIEELAEKLIEALWTGDERRIRELADPNVRMDYGEFKIHGRDLMVETLKHEMKKFKNVRLINHHVTVQGEFINIDMEVRFDGVSHRVEHNWDVVNGVVKEVRIEKN”, 1.09. Sequence “DEHRRELKEAIEMMLTALYTGDEKILLELIDPNTRLDVNGRELHGRDDWVEETRRIKNLKFHVHHIDVQGEKIHVDGLVIFNGRERRVHYNAEKYDGRWILTHINVR” came in with a protease stability score of 1.22. For “DEHTDAVETTWKRLLEDERTGNEDSLERLADPNYRVIINGKHYHGMEHSLHILSEWRITDHEIKDVEIQGEKAHIDGRFNGIIDGKHLNIHVLILIEKVDGRWIIKSVIFK”, the protease stability score is -0.096. The sequence “DEHTDMTRRLAELFRHLIETGNWKELTKLADPNMRLEVGDKEMHGREKLAELWRRIKNVRISIRRVEVQGEKVHLDLELDVDGQRQKFSEHIDIVDGVMRDVNVQWE” returned a protease stability score of 2.12. As to “DEHTDYIREILRLLSEVVRTGDEDSLRRLLDPDARIVINGVDLIGMEHWFRLMFEIRHFAEDSKLEHSEVQGDKVIAHGRYHGEYEFDGRRRRHDTEVEMHVHKIDGRWYVRSLSIR”, the protease stability score stood at 1.72. In turn, “DEHTEDTRHLEEFMLRAIKTGDEHILKRLMDPNARNEQGDKHQHGMEIIAEEWSRIKNVKVIFHRVRIQGDKIDVDGELIVNGVTMRVEFYSRKIDGRWVIHSVHFE” returned a protease stability score of 1.17. As for “DEHTEEAKHWVTRFIHALSTGDFEQIERLADPHVRVEIGDKEIHGMEFLSEHVLKFKGIRTNIRHIEIHYYDGRVNVEVDIDIHIGDKTVNSELHIHIEKVDGRWVITSLHIRTR”, the protease stability score was 1.46.
